Measurements taken from the DeepSol protein solubility set.

experiment: soluble on expression in E. coli; label from the status in PepcDB or PDB records

| Sequence | soluble on expression in E. coli |
| --- | --- |
| MIFFSVALTTLLVGLSNGCFCPPVISPSCGCGGGGYSSYSGGGYGGGYGGGAINGYATFYRDLTPFRQPYYQTASYPQYQQGPAQSLQQMYQLPNPRYIQPQAPRPQYISRPAPRPAPAPYQPPRVQERPYVQPAAPVAELAETRKNTLHDNGYGEEIERTTYTPVVTAAPVYETDAPTIVTQAPAVEEVPDFDETPVKKGEKDEFYYAYYDDKGNKVGDSRSGTTFAPENVIVEEEATVAPAPASIHMDVTTERVEVANENYDDVVEETQVPVRTSLSPSYTPEVVTSSTVLFMEPRVEAKTVAPAAHENTEVVYEDETVEYEDDGHSETSELPSTKKPQSAEFKRTVQDNQILVDAAENTGEGYRRRNAVNGVRIVKRFRHDERKIHSN | not soluble |
| MIFGRSQRGKPPVEPVTLKILVAGGFGVGKTTLVGAVSEIRPLRTEELLTEAGRPVDDVSGVEGKHTTTVAMDFGRITLREDLVLYLFGTPGQERFWFMWDELSEGALGAVVLADTRRLEDCFAAIDYFERRSIPFVVGVNCFEGSARYPGETVRQALDLDEDVPLVMCDARDRESVKEVLIGVVQHAMTQAADRRRAVPTLEHHHHHH | not soluble |
| MIFSVDKVRADFPVLSREVNGLPLAYLDSAASAQKPSQVIDAEAEFYRHGYAAVHRGIHTLSAQATEKMENVRKRASLFINARSAEELVFVRGTTEGINLVANSWGNSNVRAGDNIIISQMEHHANIVPWQMLCARVGAELRVIPLNPDGTLQLETLPTLFDEKTRLLAITHVSNVLGTENPLAEMITLAHQHGAKVLVDGAQAVMHHPVDVQALDCDFYVFSGHKLYGPTGIGILYVKEALLQEMPPWEGGGSMIATVSLSEGTTWTKAPWRFEAGTPNTGGIIGLGAALEYVSALGLNNIAEYEQNLMHYALSQLESVPDLTLYGPQNRLGVIAFNLGKHHAYDVGSFLDNYGIAVRTGHHCAMPLMAYYNVPAMCRASLAMYNTHEEVDRLVTGLQRIHRLLG | soluble |
| MIGVGKMKQYSNVLDKPLSKGKQEVSLTAFAFLFSELVQYNQTQVDNIAELERRLEDAGYAVGSRVLELLCNREKGNRRETRLLGILSFVHSTVWKVLFGKVADSLEKGTEHEDEYMISEKELLVNRFISIPKDMGTFNCGAFVAGIVKGVLDNAGFPAVVTAHFVPIEGQQRPRTTILIKFADEVLKREARLSQ | soluble |
| MIGYVLNGEHEEIPYGELMALLEIFNYNGSVERLKRYVITEDSPAKDIVKRSGYIDEGHRIIFRYNLEEKSVDLVDKIVNDFINSFKDFVANIDYPDIDESKSYAVRVLKLHKDEFTKSIDSLRIEKEIGGIIKLKTNAKVNLTKPDILVRVVILENTFFISNVLEMRDREYFQKNRPHLRKYFHPGCMLPKLARAMVNLARVKEGDIVLDPFCGTGGFLIEAGLIGAKLIGCDIDWRMASGTLINLEEYNLLDKVIKVKRLDAKYVKEFLNELNIEKVDAIVTDPPYGISTAKKGEIEKILETLPEVIKDNGYFVFAYPKKIELDMELEGLYKVYIHKGLIRHIHVYKKI | soluble |
| MIHEVAGDGTKRSFHEKKKMDESYQRNGRTNLEHVPRLKLGKLFIFISASTNKTCLQIDNEITNN | not soluble |
| MIIDQQLVCYKRLPNWTATTLPEMVTQKHNTKVGTWAKLTILSGTLHFYELDEQGEITAEHLFTPETEIPFVEPQSWHRIAAASDNLECYLSFYCKPEDYMAKKYDTKAHSEVLEAVQSGHIKPGRTLDLGCGHGRNALYLASLGHEVTAVDINNEATQRIQMIADEESYNVRAGYYDINVSALPESETFDFILSTVVFMFLDPNQIPAIIQNMQERTSIGGYNLIVCAMDTEEHPCTMPFPFTFEEGELKNYYSDWELIKYNENLGHLHRLDEHGNPIALQFATMLAKKVTLEHHHHHH | soluble |
| MIINIRKFREHDLKRVMEIEKESFDKNYPEFLMMHIYTSFPDGFLVAETEDGKIVGYIIALMEWGNGHVVSIAVDSAYQNYGIGNALLSATENFLFNECHAKHCVLEVRFDNKKAREFYYKRNYVDRKVLYNYYDDGADAILMIKRRFDLSGNYPIFVNMW | not soluble |
